In doi:10.1101/2025.09.19.677273:

Target: c8-ring of the Fo domain (bovine (endogenous in bovine heart mitochondria)), P32876
Test: cryo-EM structure
Details: remark: other sources report otherwise

- stoichiometry N: 8
B1: c8-ring of the Fo domain, P32876 62-136 (natural protein)
chain: DIDTAAKFIGAGAATVGVAGSGAGIGTVFGSLIIGYARNPSLKQQLFSYAILGFALSEAMGLFCLMVAFLILFAM
